Laboratory results taken from the Human Domainome abundance scans (Beltran et al. 2025).

B1: Transcription elongation factor A N-terminal and central domain-containing protein, residues 30 to 77; numbered along this chain, Q8N8B7 (parent)
chain: LTELETIYVTKEHLQETDVVRAVYRVLKNCPSVALKKKAKCLLSKWKA

Variants of: B1
Assay: abundance fitness (aPCA) (normalised: wild type 0, dead -1); higher = more abundant; growth selection in yeast, the domain comes from the species named
Conditions: Homo sapiens

Abundance fitness of substitutions, site by site:
R25: G -0.136, L -0.71, Y -0.805, A -0.326, C -0.92, E -0.743, F -0.811, V -0.849, N -0.091
Y8: V -0.008, A 0.274, F -0.339
K37: A -0.365, G -0.578, W -0.68, I -0.337
V9: K 0.251, I -0.163, D 0.276, E 0.318, R 0.155, T 0.087, P -0.027, L -0.229, H 0.107, N 0.232
K36: S -0.609, E -1.32, Q -0.063, I -0.152, C -0.225, Y 0.049, G -0.109, P -0.211
L14: Q 0.247, S 0.296, A 0.241, Y -0.124, H 0.294, W 0.094, M 0.16, G 0.252, P -0.049, N 0.235
A34: N 0.266, V -0.489, M -0.163, G -0.028, H -0.057, W -0.176, F -0.305, P -0.378
C41: R 0.167, N 0.268, V 0.042, Y -0.558, G 0.025, T -0.073, E 0.019
C30: G 0.012, A -0.338, S -0.514, F 0.121, W 0.119, V 0.062, D -0.442
E12: Q -0.278, G -0.598, D -0.184, W -0.71, C -0.79, F -0.742, S -0.168
E16: Q 0.285, D 0.043, I -0.28, W -0.414, N -0.187, V -0.279, T -0.116, H -0.153, M 0.041, K -0.152
D18: H 0.049, I -0.263, K -0.136, A 0.098, E -0.382, Q -0.07, P -0.154, G 0.354
V20: Q -0.633, T -0.414, H -0.491, N -0.741, Y -0.301, L 0.113, C -0.034, W 0.07
A22: G -0.046, C -0.206, R 0.277, E -0.328, H -0.328, Q -0.082, S -0.007, F -0.308, Y -0.074
T2: I -0.369, C -0.501, D 0.107, G -0.078, N 0.036, L -0.389, V -0.813, W -0.711, K 0.11, A -0.385, F -0.483
Y24: A 0.019, D -0.217, G -0.345, W 0.406, C -0.003, L 0.205, K 0.219
S32: N -0.017, K -0.155, V 0.289, C 0.367, Q -0.439, D -0.389, R 0.022
V23: M -0.087, Q -0.901, D -0.578, F -0.021, I 0.189, W -0.009
S44: E -0.262, H 0.079, V -0.48, M -0.148, D -0.537, F -0.158
T10: W -0.315, N -0.546, R -0.041, H -0.23, M -0.143
T17: I -0.654, L -0.892, M 0.192, D -0.368, F -0.852, W -0.142, R -0.099
V26: E -0.836, S -0.206, Y 0.491, P -0.131, A 0.154, C 0.15, I -0.105, Q -0.183
E3: Q -0.222, F 0.477, I -0.112, P -0.45, C 0.159, M -0.045, H -0.696, L -0.07, R -0.24
V19: Y -0.595, E -0.618, D -0.72, A -0.022, T -0.347, G -0.094, N -0.695, H -0.454, M 0.037
A48: T 0.162, R 0.034, P -0.565
A39: T -0.512, E -0.972, N -0.61, R -0.968, K -0.883, Y -0.452, C 0.072
K47: Q -0.46, E -1.08, V 0.019, S -0.967, R -0.431, D -0.762, F 0.101, N -0.625
H13: N 0.07, G -0.232, K 0.106, R -0.126, Y -0.479, L -0.842, Q -0.078, S 0.02, E 0.262, C -0.224
K45: C -0.352, M -0.63, N -0.361, F 0.204, S -0.55, D -0.443, V -0.918, Y -0.1
K38: D -0.885, R -0.061, Q -0.645, H -0.529, G -0.209, E -0.933
N29: T 0.024, P -0.904, G -0.282, I -0.167, M 0.052, L 0.004, V -0.186, E -0.536
W46: T -0.705, E -1.03, N -0.823, V -0.035, A 0.105, I 0.258, Y -0.504, L 0.022, P -0.765, G -1.07
P31: Q -0.017, F 0.511
K28: D -0.789, A -0.509, R -0.033, F -0.247, S -0.368, M -0.749
K11: A 0.095, S -0.016, T -0.555, Q -0.184, C -0.337, N -0.627, R -0.348, Y -0.599, E 0.145
R21: K -0.246, H -0.067, G -0.042, V -0.904
L4: V -0.23, F -0.044, N 0.469, K 0.272, I -0.174, Q 0.142, R 0.11
L43: W 0.127, C -0.647, S -1.04, R -0.889, P -0.789, F 0.047
Q15: Y -0.562, H -0.138, P 0.134, N -0.388, C -0.002, V -0.527, A -0.088, D -0.27, F -0.212
E5: N -0.587, H -0.346, M -0.643, K -0.393, T -1.17
V33: H -0.527, N -0.279, S 0.089, Q 0.007, C 0.041, T -0.146, R 0.155, G 0.012
L27: G -0.88, W -0.031, F -0.754, N -0.846, C -0.994, T -0.883, Q -0.648, S -0.966, R -0.848, D -0.901
L1: T 0.251, Y -0.521, C -0.162, G 0.363, Q 0.202
I7: Q 0.015, L -0.07, N 0.081, C -0.541, R 0.008, M 0.244, Y -0.422
T6: E 0.126, G -0.024, A -0.355, L -0.616, F -0.23, M -0.107, Y -0.513, K -0.059, Q 0.08
L42: A -0.689, H -1.02, D -0.894, I -0.283
